The text below walks through data of paper PMC3894413.

The target of this experiment is BCL-XL (UniProt Q07817). Description: SPR.
Sequence of UniProt Q07817 (Q07817 whole entry): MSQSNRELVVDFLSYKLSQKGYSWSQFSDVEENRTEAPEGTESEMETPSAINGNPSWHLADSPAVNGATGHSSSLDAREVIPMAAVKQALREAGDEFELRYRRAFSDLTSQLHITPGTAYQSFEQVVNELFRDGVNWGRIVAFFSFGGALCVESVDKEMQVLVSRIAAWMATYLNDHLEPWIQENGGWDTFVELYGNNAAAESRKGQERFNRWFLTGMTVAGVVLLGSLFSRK

NLWAAQRYGRELRRMSDEFVDSFKKG [BADS BH3 peptide] showed a fold higher affinity than BIMS2A BH3 for MCL-1 of 20 fold.
